Measurements reported in patent US20240059758A1 (CORAT THERAPEUTICS, published 2024).
Substitutions are numbered along the chain they refer to.

B1: YU505-E01 (antibody, V domains shown)
VH: QVQLVQSGAEVKKPGSSVKVSCKASGGTFSSYSIVWVRQAPGQGLEWMGGIIPIFGTTNYAQKFQGRVTITADESTSTAFMELSNLKSEDTAVYFCARSLGATRDYWGQGTLVTVSS
VL: SYVLTQPPSVSEAPRQRVTISCSGSSSNIGNNAVNWYQQLPGKAPKLLIYYDDLLPSGVSDRFSGSKSGTSASLAISGLQSEDEADYYCAAWDDSLNGPVFGGGTKVTVL
B2: YU505-A02 (antibody, V domains shown)
VH: QVQLVESGAEVKKPGSSVKVSCKASGGTFSSYAISWVRQAPGQGLEWMGGIIPIFGTANYAQKFQGRVTITADESTSTAYMELSSLRSEDTAVYYCARQIWAYDSSGYPVPAEYFQHWGQGTLVTVSS
VL: QSVLTQPPSVSGAPGQRVTISCTGSSSNIGAGYDVHWYQQLPGTAPKLLIYGNSNRPSGVPDRFSGSKSGTSASLAITGLQAEDEADYYCQSYDSSLSGVVFGGGTKLTVL
B3: YU505-A01 (antibody, V domains shown)
VH: QVQLVQSGAEVKKPGASVKVSCKASGYTFTSYYMHWVRQAPGQGLEWMGIINPSGGSTSYAQKFQGRVTMTRDTSTSTVYMELSSLRSEDTAVYYCARDRHYYDSSGSSQATFLFDYWGQGTLVTVSS
VL: QSVLTQPPSVSGAPGQRVTISCTGSSSNIGAGYDVHWYQQLPGTAPKLLIYGNSNRPSGVPDRFSGSKSGTSASLAITGLQAEDEADYYCQSYDSSLNVFGTGTKLTVL
B4: YU505-F05 (antibody, V domains shown)
VH: EVQLLESGGGVVQPGRSLRLSCAASGFTFSSYGMHWVRQAPGKGLEWVAVMSYDGSKKYYADSVKGRFTISRDNSKNTLYLQMNSLRAEDTAVYYCVTQGMDVWGQGTLVTVSS
VL: QSVLTQPPSVSVAPGKTARITCGGNNIGSKSVHWYQQKPGQAPVLVIYYISDRPSGIPERFSGSNSGNTATLTISRVEAGDEAAYYCHVWDSSSDHVVFGGGTKLTVL
B5: YU505-E01 (antibody, V domains shown)
VH: B1 VH
VL: B1 VL
B6: YU505-E04 (antibody, V domains shown)
VH: QVQLVQSGAEVKKPGSSVKVSCKASGGTFSSYAISWVRQAPGQGLEWMGGIIPIFGTANYAQKFQGRVTITADESTSTAYMELSSLRSEDTAVYYCARGRGYSYGHDYWGQGTLVTVSS
VL: B1 VL with V3E, L40F, P99W, V107L
B7: YU505-F03 (antibody, V domains shown)
VH: EVQLLESGAEVKKPGASVKVSCKASGYTFTGYYMHWVRQAPGQGLEWMGQINPNSGGTNYAQKFQGRVTMTRDTSISTAYMELSRLRSDDTAVYYCARGEGFDYWGQGTLVTVSS
VL: SYVLTQPPSASGTPGQRVTISCSGSSSNIGSNYVYWYQQLPGTAPKLLIYRNNQRPSGVPDRFSGSKSGTSASLAISGLRSEGEADYYCAAWDDSLSGVVFGGGTKVTVL
B8: YU519-A09 (antibody, V domains shown)
VH: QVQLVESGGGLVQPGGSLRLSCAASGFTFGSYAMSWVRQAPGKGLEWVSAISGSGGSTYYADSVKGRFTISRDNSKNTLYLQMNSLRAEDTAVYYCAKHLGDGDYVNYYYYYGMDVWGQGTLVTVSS
VL: SYVLTQPPSVSVAPRQTARITCGGNNIGSKNVHWYQQKPGQAPVLVVYDDNVRPSGIPERFSGSNSGNTATLTISRVEAGDEADYYCQVWLNSSDDVLFGGGTKVTVL
B9: YU505-E02 (antibody, V domains shown)
VH: QVQLVQSGAEVKKPGSSVKVSCKASGGTFSSYTISWVRQAPGQGLEWMGRIIPILGIANYAQKFQGRVTITADKSTSTAYMELSSLRSEDTAVYYCARDMVSVGAAGPYYFDYWGQGTLVTVSS
VL: B2 VL with G12E, G15R, G70V, V100S
B10: YU505-A02 (antibody, V domains shown)
VH: B2 VH
VL: B2 VL
B11: YU505-A01 (antibody, V domains shown)
VH: B3 VH
VL: B3 VL
B12: YU505-A05 (antibody, V domains shown)
VH: QVQLVQSGAEVKKPGSSVKVSCKASGGTFSSYAISWVRQAPGQGLEWMGGIIPIFGTANYAQKFQGRVTITADESTSTAYMELSSLRSEDTAVYYCARSDSGYSGYGYFDYWGQGTLVTVSS
VL: QSALTQPASVSGSPGQSISISCTGTSSDVGRYNYVSWYQQHPGKAPKLMIYDVTNRPSGVSSRFSGSKSGNAASLTISGLQAEDEAEYYCTSYTSSNTLVIFGGGTKVTVL
B13: YU505-B06 (antibody, V domains shown)
VH: not shown
VL: B4 VL with Q1S, S2Y, I50D, A84D, H88Q
B14: YU505-F05 (antibody, V domains shown)
VH: B4 VH
VL: B4 VL
B15: YU505-D02 (antibody, V domains shown)
VH: QVQLVQSGAEVKKPGSSVKVSCKASGGTFSSYAISWVRQAPGQGLEWMGGIIPIFGTANYAQKFQGRVTITADKSTSTAYMELSSLRSEDTAVYYCARETSSGWSFLDYWGQGTLVTVSS
VL: B4 VL with Q1S, S2Y, I50D, A84D, H88Q, L105V
B16: hybrid antibody: VL YU536-D04 (SEQ ID No. 362) with VH STE90-C11 (SEQ ID No. 1305) (antibody, V domains shown)
VH: QVQLVESGGGLVQPGGSLRLSCAASGLTVSSNYMSWVRQAPGKGLEWVSVIYSGGSTYYADSVKGRFTISRDDSKNTLYLQMNSLRAEDTAVYYCARDVADAFDIWGQGTMVTVSS
VL: DIQLTQSPSSLSASVGDRVTITCRASQGISSYLAWYQQKPGKAPKLLIYAASTLQSGVPSRFSGSGSGTDFTLTISSLQPEDFATYYCQQLNSYPITFGQGTKLEIK
B17: hybrid antibody: VL YU537-H11 (SEQ ID No. 402) with VH STE90-C11 (SEQ ID No. 1305) (antibody, V domains shown)
VH: B16 VH
VL: QSVLTQPPSVSAAPGQKVTISCSGSSSNIGNNYVSWYQQLPGTAPKLLIYDTNKRPSGIPDRFSGSKSGTSATLGITGLQTGDEADYYCATWDSSLSVGVFGGGTKLTVL
B18: hybrid antibody: VL YU536-D04 (SEQ ID No. 362) with VH YU537-H11 (SEQ ID No. 404) (antibody, V domains shown)
VH: EVQLLESGGGLIQPGGSLRLSCAASGLTVSSNYMSWVRQAPGKGLEWVSVIYSGGSTYYADSVKGRFTISRDNSKNALYLQMNSLRAEDTAVYYCARGESGSPYGMDVWGQGTLVTVSS
VL: B16 VL
B19: hybrid antibody: VL STE90-C11 (SEQ ID No. 1309) with VH YU536-D04 (SEQ ID No. 364) (antibody, V domains shown)
VH: QVQLVQSGGGLVQPGGSLRLSCAASGLTVSSNYMSWVRQAPGKGLEWVSVIYSGGSTYYADSVKGRFIISRDNSKNTLYLQMNSLRAEDTAVYYCARDLVVMGLDVWGKGTLVTVSS
VL: DIVMTQSPSFLSASVGDRVTITCRASQGISSYLAWYQQKPGKAPKLLIYAASTLQSGVPSRFSGSGSGTEFTLTISSLQPEDFATYYCQQLNSYPPFTFGPGTKVDIK
B20: hybrid antibody: VL YU537-H11 (SEQ ID No. 402) with VH YU536-D04 (SEQ ID No. 364) (antibody, V domains shown)
VH: B19 VH
VL: B17 VL
B21: hybrid antibody: VL STE90-C11 (SEQ ID No. 1309) with VH YU537-H11 (SEQ ID No. 404) (antibody, V domains shown)
VH: B18 VH
VL: B19 VL

Biological target: SARS-CoV-2 glycoprotein S (SARS-CoV-2, UniProt P0DTC2 14-1273)
Assay: cell-based or functional assay

B1 and B2 cannot be ordered by “Confluence Score in VERO E6 cell assay” value: greater than 98% for the first, greater than 99% for the second.

B3 and B4 cannot be ordered by “Confluence Score in VERO E6 cell assay” value: greater than 99% for the first, greater than 95% for the second.

Biological target: T1, receptor binding domain (RBD) of the S1-subunit of SARS-CoV-2 glycoprotein S (SARS-CoV-2, UniProt P0DTC2 319-541)
Assay: ACE2:RBD competition assay, 5 µg/ml IgG

First: B5
Second: B6
The “ACE2:RBD inhibition with 5 µg/ml IgG [%]” value of the first is lower: 24% for the first, 28% for the second.

First: B7
Second: B8
The “ACE2:RBD inhibition with 5 µg/ml IgG [%]” value of the first is higher: 42.2% for the first, 35.6% for the second.

First: B9
Second: B10
The “ACE2:RBD inhibition with 5 µg/ml IgG [%]” value of the first is higher: 58.8% for the first, 43.8% for the second.

Compared with B11, B12 is lower in “ACE2:RBD inhibition with 5 µg/ml IgG [%]” value: 102% for the first, 52.7% for the second.

First: B13
Second: B14
The “ACE2:RBD inhibition with 5 µg/ml IgG [%]” value of the first is higher: 58.5% for the first, 26.7% for the second.

For B15, the “ACE2:RBD inhibition with 5 µg/ml IgG [%]” value was 49.4%.

Biological target: T2, receptor binding domain (RBD) of the S1-subunit of SARS-CoV-2 glycoprotein S (SARS-CoV-2, UniProt P0DTC2 319-541)
Assay: ACE2:RBD competition, antibody at 5 µg/ml

B1 and B2 cannot be ordered by “ACE2 bound to RBD at 5 µg/ml antibody” value: less than 25% for the first, less than 30% for the second.

B3 and B4 cannot be ordered by “ACE2 bound to RBD at 5 µg/ml antibody” value: less than 30% for the first, less than 30% for the second.

Biological target: T2, receptor binding domain (RBD) of the …
Assay: ACE2:RBD competition, antibody at 0.5 µg/ml

B1 and B2 cannot be ordered by “ACE2 bound to RBD at 0.5 µg/ml antibody” value: less than 50% for the first, less than 60% for the second.

B3 and B4 cannot be ordered by “ACE2 bound to RBD at 0.5 µg/ml antibody” value: less than 60% for the first, less than 60% for the second.

Biological target: T1, receptor binding domain (RBD) of the …
Assay: RBD-binding quality as compared to STE90-C11, wt

B16: binds.
B17: binds.
B18: binds.
B19: binds.
B20: binds.
B21: binds.
